# Test results published in PMC6522503.
# Tests used:
# CDK2 = CDK2 (UniProt P24941); assay: anti-HA co-IP, anti-FLAG blot; conditions: reference: wild type p21; sites T55
# CDK4 = CDK4 (UniProt P11802); assay: anti-HA co-IP, anti-FLAG blot; conditions: reference: wild type p21; sites T55
substance,measurement,setting,value
p21 (from UniProt P38936) T55A p21,binding against the reference,CDK2,weaker
same,binding against the reference,CDK4,weaker
